Test results taken from publication PMC7177284, “A Coil-to-Helix Transition Serves as a Binding Motif for hSNF5 and BAF155 Interaction” (International Journal of Molecular Sciences, 2020).

Key:
[1] = molecular target: BAF155^SWIRM (SWIRM domain of human BAF155, residues 449–546) (human) (UniProt Q92922); experiment: ITC; VP-ITC, 25 °C, 25 mM sodium phosphate, 100 mM NaCl, 1 mM TCEP, pH 7.0; typically 160 µM hSNF5 injected into 10 µM BAF155^SWIRM or mutant in the cell; single-site model
[2] = molecular target: T1, BAF155^SWIRM (SWIRM domain of human BAF155, residues 449–546) (human, UniProt Q92922 449-546); experiment: SEC-MALS; Wyatt WTC-030S5 column, 0.5 mL/min, 10 mM HEPES pH 7.0, 100 mM NaCl, 2 mM DTT; hSNF5^171–258 0.2 mM and BAF155^SWIRM 0.3 mM, individually or together; settings: both partners purified
T1 construct: human BAF155, SWIRM domain, residues 449-546; 15N- or 13C,15N-labelled for the NMR experiments; also called BAF155/SRG3; source: E. coli BL21 (DE3), purified (Ni-NTA, TEV cleavage, Superdex 200); not shown: His6, N-terminal, cleaved

[3] = molecular target: T1, BAF155^SWIRM (SWIRM domain of human …); experiment: ITC; VP-ITC, 25 °C, 25 mM sodium phosphate, 100 mM NaCl, 1 mM TCEP, pH 7.0; typically 160 µM hSNF5 injected into 10 µM BAF155^SWIRM or mutant in the cell; single-site model; settings: both partners purified
[4] = molecular target: T1, BAF155^SWIRM (SWIRM domain of human …); experiment: as above; settings: both partners purified; remark: listed apart in the source
[5] = molecular target: T2, BAF155^SWIRM N476A/N479A mutant (human, UniProt Q92922 449-546, N476A | N479A); experiment: as above; settings: both partners purified
T2 construct: human BAF155, SWIRM domain, residues 449-546, N476A and N479A; PDB 6KZ7 holds the wild-type parent of the same limits; source: E. coli BL21 (DE3), purified (Ni-NTA, TEV cleavage, Superdex 200); not shown: His6, N-terminal, cleaved
T2 sequence (Q92922 449-546 N476A/N479A): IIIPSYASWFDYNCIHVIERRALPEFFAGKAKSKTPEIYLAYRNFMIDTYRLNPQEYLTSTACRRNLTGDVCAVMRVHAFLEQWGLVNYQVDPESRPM

T1 sequence (Q92922 449-546): as the sequence (Q92922 449-546 N476A/N479A) above, with A28N, A31N counted along it
BAF155^SWIRM (SWIRM domain of human BAF155, residues 449–546) (human), sequence (Q92922 449-546): as the sequence (Q92922 449-546 N476A/N479A) above, with A28N, A31N counted along it

Kd [3] | dH [3] | Molecule | further results
300 ± 50 nM | -21 ± 0.6 kcal/mol | hSNF5^179–253 (domain or fragment, human, UniProt Q12824 179-253, looked up, human SNF5 (hSNF5), residues 179-253; source: E. coli BL21 (DE3), purified (Ni-NTA, TEV cleavage, Superdex 200); not shown: His6, N-terminal, cleaved) NASQPEVLVPIRLDMEIDGQKLRDAFTWNMNEKLMTPEMFSEILCDDLDLNPLTFVPAIASAIRQQIESYPTDSI | –
300 ± 70 nM | -12.9 ± 0.4 kcal/mol | hSNF5^181–253 (domain or fragment, human, UniProt Q12824 181-253, looked up, human SNF5 (hSNF5), residues 181-253; source: E. coli BL21 (DE3), purified (Ni-NTA, TEV cleavage, Superdex 200); not shown: His6, N-terminal, cleaved) SQPEVLVPIRLDMEIDGQKLRDAFTWNMNEKLMTPEMFSEILCDDLDLNPLTFVPAIASAIRQQIESYPTDSI | –
290 ± 80 nM | -18.7 ± 0.8 kcal/mol | hSNF5^183–253 (domain or fragment, human, UniProt Q12824 183-253, looked up, human SNF5 (hSNF5), residues 183-253; also called whole αN helix-deletion mutant; source: E. coli BL21 (DE3), purified (Ni-NTA, TEV cleavage, Superdex 200); not shown: His6, N-terminal, cleaved) PEVLVPIRLDMEIDGQKLRDAFTWNMNEKLMTPEMFSEILCDDLDLNPLTFVPAIASAIRQQIESYPTDSI | –
760 ± 80 nM | -16 ± 0.3 kcal/mol | hSNF5^186–253 (domain or fragment, human, UniProt Q12824 186-253, looked up, human SNF5 (hSNF5), residues 186-253; source: E. coli BL21 (DE3), purified (Ni-NTA, TEV cleavage, Superdex 200); not shown: His6, N-terminal, cleaved) LVPIRLDMEIDGQKLRDAFTWNMNEKLMTPEMFSEILCDDLDLNPLTFVPAIASAIRQQIESYPTDSI | –

More lines, now with the values behind:

Molecule | Kd [3] | dH [3] | further results
hSNF5^SFH1/171–253 (chimeric mutant with the N-terminal tail region from the yeast protein SFH1) (from UniProt Q12824 185-253) (domain or fragment) | – | – | Kd [1]: 480 nM; dH [1]: -13.4 kcal/mol
hSNF5^171–258 (N- and C-terminal elongated hSNF5 RPT1 domain) (domain or fragment, human, UniProt Q12824 171-258, looked up, 15N- or 13C,15N-labelled for the NMR experiments; modified pET21b vector; also called human SNF5; SNF5/INI1/BAF47; source: E. coli BL21 (DE3), purified (Ni-NTA, TEV cleavage, Superdex 200); not shown: His6, N-terminal, cleaved) HDPAVIHENASQPEVLVPIRLDMEIDGQKLRDAFTWNMNEKLMTPEMFSEILCDDLDLNPLTFVPAIASAIRQQIESYPTDSILEDQS | – | – | stoichiometry N [2]: 1
hSNF5^174–253 (domain or fragment, human, UniProt Q12824 174-253, looked up, human SNF5 (hSNF5), residues 174-253; source: E. coli BL21 (DE3), purified (Ni-NTA, TEV cleavage, Superdex 200); not shown: His6, N-terminal, cleaved) AVIHENASQPEVLVPIRLDMEIDGQKLRDAFTWNMNEKLMTPEMFSEILCDDLDLNPLTFVPAIASAIRQQIESYPTDSI | 110 ± 30 nM | -15.8 ± 0.5 kcal/mol | –
hSNF5^171–253 (domain or fragment, human, UniProt Q12824 171-253, looked up, source: E. coli BL21 (DE3), purified (Ni-NTA, TEV cleavage, Superdex 200); not shown: His6, N-terminal, cleaved) HDPAVIHENASQPEVLVPIRLDMEIDGQKLRDAFTWNMNEKLMTPEMFSEILCDDLDLNPLTFVPAIASAIRQQIESYPTDSI | 110 ± 20 nM | -19.7 ± 0.3 kcal/mol | stoichiometry N [4]: 1; Kd [5]: 140 ± 30 nM; dH [5]: -17.7 ± 0.7 kcal/mol
hSNF5^171–253 with the E184A mutation (domain or fragment, human, UniProt Q12824 171-253, looked up, source: E. coli BL21 (DE3), purified (Ni-NTA, TEV cleavage, Superdex 200); not shown: His6, N-terminal, cleaved) HDPAVIHENASQPAVLVPIRLDMEIDGQKLRDAFTWNMNEKLMTPEMFSEILCDDLDLNPLTFVPAIASAIRQQIESYPTDSI | 370 ± 100 nM | -11.2 ± 0.4 kcal/mol | –
